From publication PMC9638930, “Structural basis of flagellar motility regulation by the MogR repressor and the GmaR antirepressor in Listeria monocytogenes” (Nucleic Acids Research, 2022)

Legend:
[1] = biological target: MogRD with individual mutation of the N154, I155 and F156 residues to alanine; experiment: ELISA; wells coated with MogR protein (20 nM); three-fold serially diluted His6-tagged GmaRFL, 2 h at 18°C; detected with anti-His6 antibody
[2] = biological target: MogRD^S114A/Q117A/N118A/K122A (Listeria monocytogenes) (UniProt P0DJO8); experiment: as above
[3] = biological target: His6-tagged GmaRFL protein; experiment: ELISA
[4] = biological target: T1, MogR DBD protein (MogRD; residues 1–162) (Listeria monocytogenes, UniProt P0DJO8 1-162); experiment: ITC; MicroCal iTC200, 18°C; 250 μM MogRD injected into 25 μM GmaRFL or GmaR_(141-637); 20 mM Hepes pH 7.4, 150 mM NaCl, 5 mM βME; one-site binding model; details: both partners purified
T1 construct: Monomer by gel filtration; also called MogR^GmaR; source: E. coli BL21 (DE3), purified (Ni-NTA, Mono S or Mono Q ion exchange); for the crystal co-purified with GmaR_(231-637)
T1 sequence: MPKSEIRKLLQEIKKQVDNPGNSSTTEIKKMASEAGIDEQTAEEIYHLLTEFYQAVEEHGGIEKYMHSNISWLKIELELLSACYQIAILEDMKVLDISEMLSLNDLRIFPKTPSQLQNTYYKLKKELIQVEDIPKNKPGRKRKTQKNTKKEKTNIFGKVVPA

[5] = biological target: T2, MogR1-151 (Listeria monocytogenes, UniProt P0DJO8 1-151); experiment: EMSA; 20 mM Hepes pH 7.4, 150 mM NaCl, 5 mM bME; FP room temperature with 1 nM dsDNA; EMSA 18 C 30 min (GmaR inhibition assays at room temperature, 10 min, 2:1 MogR:dsDNA); details: protein: recombinant; tags: N-terminal His6, thrombin site; label: none (ethidium bromide stain); blunt
T2 sequence: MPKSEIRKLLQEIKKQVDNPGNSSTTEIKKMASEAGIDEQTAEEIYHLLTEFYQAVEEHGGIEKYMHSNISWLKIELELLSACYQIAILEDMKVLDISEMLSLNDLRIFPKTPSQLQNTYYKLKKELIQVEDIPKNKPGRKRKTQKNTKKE

[6] = biological target: T3, MogRD Site1-Ala (Listeria monocytogenes, UniProt P0DJO8 1-162, K152A;T153A;N154A;I155A;F156A); experiment: as above; details: protein: recombinant; tags: N-terminal His6, thrombin site; chain copies: 2; label: none (ethidium bromide stain); blunt
[7] = biological target: T4, MogRD (MogR DNA-binding domain) (Listeria monocytogenes, UniProt P0DJO8 1-162); experiment: EMSA; with GmaRFL pretreated at 37 C 15 min; inhibition lost; 20 mM Hepes pH 7.4, 150 mM NaCl, 5 mM bME; FP room temperature with 1 nM dsDNA; EMSA 18 C 30 min (GmaR inhibition assays at room temperature, 10 min, 2:1 MogR:dsDNA); details: protein: recombinant; tags: N-terminal His6, thrombin site; label: none (ethidium bromide stain); blunt
T4 sequence: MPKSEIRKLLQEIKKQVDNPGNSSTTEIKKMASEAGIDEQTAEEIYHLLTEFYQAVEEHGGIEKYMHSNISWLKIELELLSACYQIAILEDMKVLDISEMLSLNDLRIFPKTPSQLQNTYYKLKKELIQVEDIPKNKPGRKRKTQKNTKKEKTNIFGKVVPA

[8] = biological target: MogRD SiteMIG-Ala (Listeria monocytogenes, UniProt P0DJO8 1-162, R140A;K141A;R142A;K143A;T144A); experiment: EMSA or FP (Supplementary Fig S9; method and label not given in material); 20 mM Hepes pH 7.4, 150 mM NaCl, 5 mM bME; FP room temperature with 1 nM dsDNA; EMSA 18 C 30 min (GmaR inhibition assays at room temperature, 10 min, 2:1 MogR:dsDNA); details: protein: recombinant; tags: N-terminal His6, thrombin site; chain copies: 2; label: none (ethidium bromide stain); blunt
[9] = biological target: T3, MogRD Site1-Ala; experiment: FP; 100 nM MogR with GmaRFL; no inhibition; 20 mM Hepes pH 7.4, 150 mM NaCl, 5 mM bME; FP room temperature with 1 nM dsDNA; EMSA 18 C 30 min (GmaR inhibition assays at room temperature, 10 min, 2:1 MogR:dsDNA); details: protein: recombinant; tags: N-terminal His6, thrombin site; chain copies: 2; blunt
[10] = biological target: T4, MogRD (MogR DNA-binding domain); experiment: FP; 20 mM Hepes pH 7.4, 150 mM NaCl, 5 mM bME; FP room temperature with 1 nM dsDNA; EMSA 18 C 30 min (GmaR inhibition assays at room temperature, 10 min, 2:1 MogR:dsDNA); details: protein: recombinant; tags: N-terminal His6, thrombin site; blunt
[11] = biological target: T2, MogR1-151; experiment: as above; details: protein: recombinant; tags: N-terminal His6, thrombin site; blunt
[12] = biological target: full-length GmaR (GmaRFL; residues 1–637) (Listeria monocytogenes); experiment: ITC; MicroCal iTC200, 18°C; 250 μM MogRD injected into 25 μM GmaRFL or GmaR_(141-637); 20 mM Hepes pH 7.4, 150 mM NaCl, 5 mM βME; one-site binding model
[13] = biological target: full-length GmaR (GmaRFL; residues 1–637) (Listeria monocytogenes); experiment: native gel or EMSA; native PAGE (6% gel, pH 8.8, Coomassie); GmaR incubated with MogR at a defined molar ratio at 18°C for 30 min in 20 mM Hepes pH 7.4, 150 mM NaCl, 5 mM βME
[14] = biological target: full-length GmaR (GmaRFL; residues 1–637) (Listeria monocytogenes); experiment: SEC; Superdex 200 10/300 at room temperature, 20 mM Hepes pH 7.4, 150 mM NaCl, 5 mM βME; GmaRFL, MogRD and their 1:1 molar mixture

In the case of “His6-tagged GmaRFL protein (natural protein)”, the fold reduction of GmaRFL-binding activity against MogRD [1] is reported as 5 to 6 fold and the fold lower GmaRFL-binding activity than MogRD [2] is reported as 2 fold.

In the case of “MogR DBD protein (MogRD; residues 1–162) (from UniProt P0DJO8) F156A”, the EC50 ([3]; parent: 220 ± 81) is reported as 1420 nM.

In the case of “MogR DBD protein (MogRD; residues 1–162) (from UniProt P0DJO8) I155A”, the EC50 ([3]; parent: 220 ± 81) is reported as 1170 nM.

“MogR DBD protein (MogRD; residues 1–162) (from UniProt P0DJO8) K122A” gave an EC50 ([3]; parent: 167 ± 18) of 160 nM.

With “MogR DBD protein (MogRD; residues 1–162) (from UniProt P0DJO8) K152A” the EC50 ([3]; parent: 220 ± 81) was 346 nM.

Molecule “MogR DBD protein (MogRD; residues 1–162) (from UniProt P0DJO8) N118A” has an EC50 ([3]; parent: 167 ± 18) of 185 nM.

For “MogR DBD protein (MogRD; residues 1–162) (from UniProt P0DJO8) N154A”, the EC50 ([3]; parent: 220 ± 81) was 1230 nM.

With “MogR DBD protein (MogRD; residues 1–162) (from UniProt P0DJO8) Q117A” the EC50 ([3]; parent: 167 ± 18) was 182 nM.

Molecule “MogR DBD protein (MogRD; residues 1–162) (from UniProt P0DJO8) S114A” has an EC50 ([3]; parent: 167 ± 18) of 139 nM.

With “MogR DBD protein (MogRD; residues 1–162) (from UniProt P0DJO8) S114A; Q117A; N118A; K122A” the EC50 ([3]; parent: 167 ± 18) was 342 nM.

Molecule “MogR DBD protein (MogRD; residues 1–162) (from UniProt P0DJO8) T112A” has an EC50 ([3]; parent: 167 ± 18) of 165 nM.

“MogR DBD protein (MogRD; residues 1–162) (from UniProt P0DJO8) T153A” was tested, and the EC50 ([3]; parent: 220 ± 81) was 518 nM.

B1: N-terminally truncated GmaR protein (GmaR_(141-637); residues 141–637) (domain or fragment)
chain: RGVIHEQLEAIDKRPIAAGVAEVKIYHYGYMSEIVEKQDKSDRNLRLLEKEVKNNKNSGFVHFNIGQEMNRLGNKKEALKEFSEAFRLRDHNHYIWAKLSAYHIAELLEQEKRYDESLAIIEEARVIWPNVPEFPLKKANILYVNHQLEDAKEIYQSLLENAAIDYQPIVLYEATNFMPHKMLGTIYLEEKDYTRAMTHFSKAYAENSSDYGVMFQMIMLLSKFHQPKEIFAFMERHHFISSTETGLRLLSMTTQQGYAELSELIVQSLTDVYPPVAEATEVKIATIRNVFPVISESAILFGIKEELIDAADLCLWHYENPQLPIENVMKNSDVGDIYDFIFENGPRISKKRYLFVLERAIALGKGEFADYLLALRNVYHDSINSHIADLFFQYDFADIALDFYNIVDADEVTKQGYINLINYLVDADVLDEALAIAERGIDNFSTDFRFYLWAIKIDTENRANRISEAMDEFPNNRYLAKLLDEVTMLQDTVTNNR
For B1, the Kd [4] was roughly 22 nM.

B2: operator dsDNA, unlabeled (dsDNA)
DNA 1: ATTTGATTTTTTAAAAAAATGAAGA
DNA 2: TCTTCATTTTTTTAAAAAATCAAAT
B2: binds [5]; binds [6]; binds [7]. B2: no binding [8].

B3: operator dsDNA, fluorescein-labeled (dsDNA)
DNA 1: ATTTGATTTTTTAAAAAAATGAAGA
DNA 2: TCTTCATTTTTTTAAAAAATCAAAT
B3: binds [9]; binds [10]; binds [11].

B4: MogR DBD protein (MogRD; residues 1–162) (domain or fragment)
chain: MPKSEIRKLLQEIKKQVDNPGNSSTTEIKKMASEAGIDEQTAEEIYHLLTEFYQAVEEHGGIEKYMHSNISWLKIELELLSACYQIAILEDMKVLDISEMLSLNDLRIFPKTPSQLQNTYYKLKKELIQVEDIPKNKPGRKRKTQKNTKKEKTNIFGKVVPA
In the case of B4, the Kd [12] is reported as 13 nM, the stoichiometry N [13] is reported as 1 and the stoichiometry N [14] is reported as 1.
